In IntAct's records for PubMed 19070620:

Target: T1, rogf8_arath ROPGEF8 (UniProt Q9LV40)
T1 sequence: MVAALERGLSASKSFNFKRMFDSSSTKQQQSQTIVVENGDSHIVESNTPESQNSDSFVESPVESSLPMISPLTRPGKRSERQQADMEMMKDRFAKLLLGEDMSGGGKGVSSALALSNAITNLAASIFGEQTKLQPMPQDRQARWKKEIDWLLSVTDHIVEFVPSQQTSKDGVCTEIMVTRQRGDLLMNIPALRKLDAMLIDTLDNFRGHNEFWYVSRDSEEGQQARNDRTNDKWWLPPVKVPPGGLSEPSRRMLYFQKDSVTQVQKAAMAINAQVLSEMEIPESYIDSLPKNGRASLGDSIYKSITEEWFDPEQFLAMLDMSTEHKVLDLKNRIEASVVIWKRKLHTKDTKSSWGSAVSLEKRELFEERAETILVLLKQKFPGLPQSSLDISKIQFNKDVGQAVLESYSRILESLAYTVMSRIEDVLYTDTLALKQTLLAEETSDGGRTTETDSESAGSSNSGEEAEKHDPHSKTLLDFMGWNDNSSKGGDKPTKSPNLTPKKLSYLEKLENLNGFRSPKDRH

**Q.** With “Ras-related C3 botulinum toxin substrate 1 (Homo sapiens) (from UniProt P63000) P73C” as the substance, how does the “effect of a mutation on the interaction” value read?
**A.** increasing interaction
